Reference: the supplement of paper PMC11865577

system: TO-3-N3-2 (biotin conjugate); experiment: pull-down binding Z-score (relative to library population); higher = stronger binding; conditions: RNA library: Library-2
Outline: (§1)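 Binding is given as a Z-score against the library mean and standard deviation, calculated after removing the beads-only signal and averaging barcoded replicate probes without their highest and lowest values. Cy5- or Cy3-end-labelled RNA library (1 μg) was heat-folded in phosphate/NaCl/KCl buffer and incubated 60 min at 25 °C with streptavidin beads bearing 100 pmol of biotin-conjugated small molecule. After three washes, RNA eluted in hot SDS was hybridised to a DNA barcode microarray for 20 h at 55.5 °C.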

Row | Sequence | pull-down binding Z-score
1 | UGGCAAUUCAGUAAAAAUGCUCA [hsa-mir-6715b] | -0.14
2 | UGGCACAGAUCCAAUACCUUCUGUCCCC [hsa-mir-6810] | -0.361
3 | UGGCCAUUUCCUACCA [hsa-mir-617] | -0.393
4 | UGGCCUGGCAGUGCGUCGGAAGAACAGGGCGGGUGGGGCC [hsa-mir-4792] | 3.11
5 | UGGCGACACUCGCGCCAGCUCCCGGGACGGCUGGGCUCGGGCUGGUCGCCGA [hsa-mir-7845] | -0.167
6 | UGGCGGCGGCGAGGACACCGCCGCU [hsa-mir-4469] | 0.747
7 | UGGCUGCUUGGGUCAAGUCAGCAGCCA [hsa-mir-449b] | -0.474
8 | UGGCUGUAGGGCAGCAGUCA [hsa-mir-8079] | 0.456
9 | UGGCUUCUGCCUCUUUCUUUGUGGAAGCCA [hsa-mir-4269] | -0.369
10 | UGGCUUGCACCGUGACUCCCUCUCACCAAGCAAGUGUC [hsa-mir-4440] | 0.0231
11 | UGGGAGGUAAGAGCUCUUCACCCUUCA [hsa-mir-197] | -0.132
12 | UGGGAGUGAUCCCAACAGCUGAGCUCCCU [hsa-mir-7106] | -0.0877
13 | UGGGCAGUUCUUCUGCUGG [hsa-mir-1587] | 0.0756
14 | UGGGCCAAG [hsa-mir-3620] | 0.193
15 | UGGGCUCCCCUAGACUAGGACUCCA [hsa-mir-1825] | -0.507
16 | UGGGUAGAAAGUAUUAUUCUAUUCA [hsa-mir-664b] | -0.0975
17 | UGGGUAGGAAUAUCCUGGAUCCCCU [hsa-mir-3189] | 0.312
18 | UGGGUCAAGGAGCCCA [hsa-mir-4530] | -0.211
19 | UGGGUGGAUCCUCUAUUUCCUUACGUGGGCCACUGG [hsa-mir-432] | -0.013

Row | Sequence | pull-down binding Z-score
20 | UGGGUUAAGCCGAGCUGG [hsa-mir-4507] | 0.297
21 | UGGGUUGAACUGUGUGGACAAGCUCA [hsa-mir-181b-1] | -0.042
22 | UGGGUUGUGUCAGUGUCAGACCUC [hsa-mir-146a] | -0.00346
23 | UGGGUUUGAGUCUGAAUCAACUCA [hsa-mir-181b-2] | -0.254
24 | UGGUAUCCUGACCG [hsa-mir-1973] | -0.269
25 | UGGUCAGAUAUCCCAU [hsa-mir-8060] | -0.195
26 | UGGUCAGGCGGCU [hsa-mir-3917] | -0.061
27 | UGGUGCAAUAAUUGG [hsa-mir-1302-7] | 0.492
28 | UGGUGGAGAUGGAGAGCCCUGAGCCUCCA [hsa-mir-6777] | -0.0154
29 | UGGUGGGAGAGGAGCCCCACUGUGGAAGUCUGACCCCCACA [hsa-mir-6785] | 1.01
30 | UGGUGGGGGCCGGGGCAGGCCCAGCGAAA [hsa-mir-648] | 1.37
31 | UGGUGGUGAAUUCAUGAGUCGCCA [hsa-mir-3115] | -0.498
32 | UGGUUACGUGUUUGAUGGUUAAUCA [hsa-mir-376a-2] | -0.0388
33 | UGGUUAGCUUUUUUUUUUUUUUGAGAUGGAGUCUGGCUC [hsa-mir-8086] | 0.519
34 | UGGUUGAAUAUGUGAAUGGCAUCG [hsa-mir-449a] | 0.0695
35 | UGGUUUCACUA [hsa-mir-3713] | -0.427
36 | UGGUUUGACACAGAGCUAAAUCA [hsa-mir-5007] | 0.0372
37 | UGUAAAAUGUAAUAACAUUUCUUAUGUUUAAAACACUUUACA [hsa-mir-4801] | -0.401

system: TO-N3-2 (biotin conjugate); experiment: as above; conditions: RNA library: Library-2
Outline: as §1

Row | Sequence | pull-down binding Z-score
38 | UGCUCAGUGGAGUUAUUUUGAGCA [hsa-mir-4495] | -1.2
39 | UGCUCCUUGAACAGGAGGAGCA [hsa-mir-4708] | -0.535
40 | UGCUCUGAUGAAGACCCAUGUGGC [hsa-mir-621] | 1.51
41 | UGCUCUGGUGACUGAGGACCGCCAGGCA [hsa-mir-4763] | 0.367
42 | UGCUGAUGUCAUCAGUCAUAACUUCUGCG [hsa-mir-6854] | 0.366
43 | UGCUGGAGAAGUGUUU [hsa-mir-557] | 0.156
44 | UGCUGGUGCUAGAGAGGAAAGCA [hsa-mir-4748] | 2.22
45 | UGCUGUGAGCUAGCCAGCAG [hsa-mir-5693] | 0.91
46 | UGCUGUGCUGUGCUGAGCAGGGCUGAGCUG [hsa-mir-4539] | 1.46
47 | UGCUGUUGCUGUGAAAGCUGA [hsa-mir-6823] | 0.705
48 | UGCUGUUGGAGACUCGAUUGUUGGUGACAGCGAAAGAACGAUAACAAA [hsa-mir-3655] | 1.04
49 | UGCUUCAGUUUCACUCCAAGCA [hsa-mir-4771-2_4771-1] | -0.141
50 | UGCUUCCACAUAGCAGCA [hsa-mir-4752] | -0.597
51 | UGCUUGACCUGAAUGCUACAAGGCA [hsa-mir-103b-2] | -0.0962
52 | UGCUUGAUCCAUAUGCAACAAGGCA [hsa-mir-103b-1] | 0.715
53 | UGCUUUACUUUUAAUGGCA [hsa-mir-548k] | -1.34
54 | UGCUUUGUUAGAAACAAAAAGCA [hsa-mir-4679-1] | -0.462
55 | UGCUUUUUGUUUCUAACAAAGCA [hsa-mir-4679-2] | -1.25
56 | UGGAAGCUCCAGGUGCCAACCACCUGCCUCUA [hsa-mir-6731] | 0.456
57 | UGGAAGGAAUGGGAUCUACUUCCA [hsa-mir-3612] | -0.214
58 | UGGACAGAAAUUUCCUUUUGAGGAAAUCUUUCCC [hsa-mir-4308] | -0.367
59 | UGGACCUCAGGGAAGAGGCUG [hsa-mir-4673] | -0.855
60 | UGGACUGUGUACCAAUUUCCA [hsa-mir-194-1] | -0.471
61 | UGGAGCCAGGGGGCCCAGGUCUACAGCUUCUCCCCGCUCCC [hsa-mir-6752] | 1.2
62 | UGGAGCUAGACCACAUGGGUUCA [hsa-mir-5100] | 0.244
63 | UGGAGGAGUCUGGUGGCCUGUUCUCUU [hsa-mir-6754] | 0.707
64 | UGGAGGCUGACCUCUUACUUUCGGUCGGUCUUCUU [hsa-mir-4258] | -0.435
65 | UGGAGGCUGCAGUGAGCCGAGAUCGAGCCACUGUACUCCA [hsa-mir-1273e] | 1.09

Row | Sequence | pull-down binding Z-score
66 | UGGAGGGGGUUUGUUUGCUUAUUCCCCUCU [hsa-mir-6737] | 0.633
67 | UGGAGGUGAUGGAUGUUUUCCUCCG [hsa-mir-671] | -0.359
68 | UGGAGGUGAUGGGGGCAGGGGAUGGGUCUCACCCUCCC [hsa-mir-5088] | 2.59
69 | UGGAGUCAGUAUUGGUCUGGCCA [hsa-mir-4255] | 0.502
70 | UGGAGUUUUUUUUUCCUCCUG [hsa-mir-4329] | 0.0619
71 | UGGAUCACGCCGACAACACUGGUCU [hsa-mir-4635] | 0.76
72 | UGGAUUUGAAAUGGUCCCACUCCUGACGAUCCU [hsa-mir-6748] | 0.335
73 | UGGCAAAGACAUAGAUUGUUUAGCUACCCCUUUGCCA [hsa-mir-3119-2] | -0.58
74 | UGGCAAAGGGGUAGCUAAACAAUCUAUGUCUUUGCCA [hsa-mir-3119-1] | -0.555
75 | UGGCAAUUCAGUAAAAAUGCUCA [hsa-mir-6715b] | 0.143
76 | UGGCACAGAUCCAAUACCUUCUGUCCCC [hsa-mir-6810] | 0.171
77 | UGGCCAUUUCCUACCA [hsa-mir-617] | -0.383
78 | UGGCCUGGCAGUGCGUCGGAAGAACAGGGCGGGUGGGGCC [hsa-mir-4792] | 3.57
79 | UGGCGACACUCGCGCCAGCUCCCGGGACGGCUGGGCUCGGGCUGGUCGCCGA [hsa-mir-7845] | 1.38
80 | UGGCGGCGGCGAGGACACCGCCGCU [hsa-mir-4469] | 0.629
81 | UGGCUGCUUGGGUCAAGUCAGCAGCCA [hsa-mir-449b] | -0.648
82 | UGGCUGUAGGGCAGCAGUCA [hsa-mir-8079] | 0.479
83 | UGGCUUCUGCCUCUUUCUUUGUGGAAGCCA [hsa-mir-4269] | -1.13
84 | UGGCUUGCACCGUGACUCCCUCUCACCAAGCAAGUGUC [hsa-mir-4440] | 0.607
85 | UGGGAGGUAAGAGCUCUUCACCCUUCA [hsa-mir-197] | 0.638
86 | UGGGAGUGAUCCCAACAGCUGAGCUCCCU [hsa-mir-7106] | 0.529
87 | UGGGCAGUUCUUCUGCUGG [hsa-mir-1587] | 0.377
88 | UGGGCCAAG [hsa-mir-3620] | 0.487
89 | UGGGCUCCCCUAGACUAGGACUCCA [hsa-mir-1825] | 0.508
90 | UGGGUAGAAAGUAUUAUUCUAUUCA [hsa-mir-664b] | -0.83
91 | UGGGUAGGAAUAUCCUGGAUCCCCU [hsa-mir-3189] | 0.501
92 | UGGGUCAAGGAGCCCA [hsa-mir-4530] | -0.3
